Laboratory results published in publication PMC2965676, “The C-Terminal Domain of the MutL Homolog from Neisseria gonorrhoeae Forms an Inverted Homodimer” (PLoS ONE, 2010).

Biological target: the molecule itself
Experiment: SEC; Superose 6 HR 10/30; 10 mM Hepes pH 8.0, 300 mM KCl, 10% glycerol, 1 mM 2-mercaptoethanol; 0.4 ml/min; calibrated with molecular-mass markers

B1: C-terminal domain of the MutL homolog of Neisseria gonorrhoeae (NgoL-CTD), wild type (domain or fragment, UniProt Q5F8M6 458-658, looked up)
chain: IPSQSELPPLGFAIAQLLGIYILAQAEDSLLLIDMHAAAERVNYEKMKRQRQENGNLQSQHLLIPVTFAASHEECAALADHAETLAGFGLELSDMGGNTLAVRAAPVMLGKSDVVSLARDVLGELAQVGSSQTIASHENRILATMSCHGSIRAGRRLTLPEMNALLRDMENTPRSNQCNHGRPTWVKLTLKELDTLFLRGQ
notes: MutL homolog (NgoL) of Neisseria gonorrhoeae, C-terminal domain, residues 458-658; In the model, residues 463-654 (monomer A) and 464-656 (monomer B) are built; 587-591 are disordered; also called C-terminal domain of NgoL; source: selenomethionine-labelled form in E. coli B834
stoichiometry N: 2
